PMC3820547 (2013)

B1: Primase small subunit P41 (Q9V292), HIS-tagged (natural protein)
chain: MLLREVTKEERKEFYSNEWNAKQIPDFILQNLDKREFGFDHTGEGPSDRKNSYTDVRDLEDYIKATAPYAVYSSVAFYEKPQEMEGWLGAELVFDIDAKDLPLRRCNHEPGKVCPICLNDAKEIARDTLIVLKEELGFEDVHVVYSGRGYHIRVMDGWALSLDSKSRERILSFISASEIEDHSEFRKMLLERRGWFVLNHGYPRVFRLRFGYFILRVKVEHLINFGIRKNIAKRILDNKETIYEEFVRKGILAAFPDGVGIESLAKLFALSTRFSKAYFDGRVTVDLKRILRLPSTLHSKVGLIAKYIGNNERDVMRFNPFKHAVPKFRRKEVKEEYKRFLEENF
B2: Replication Protein A (Q9V1Z1, Q9V1Y9, Q9V1Z0), His-tagged RPA complex (complex)
chain 1: MVNVKNRNILRYSKVVDMTVLTKDRIIEIIERKTGMSREEIEEEIRKIMEEDPYLSEQGAAALLAERLGIDLIEKEEVSLMRISELYPGMDPREVNVVGRVLKKYPPREYTRKDGSVGRVASLIIYDDSGRARVVLWDAKVSEYYNKIEVGDVIKVLDAQVKESLSGLPELHINFRARIILNPDDPRVEMIPPLEEVRVATYTRKKIKDIEAGDRFVEVRGTIAKVYRVLTYDACPECKKKVDYDEGLGVWICPEHGEVQPIKMTILDFGLDDGTGYIRVTLFGDDAEELLGVSPEEIAEKIKELEESGLTTKEAARKLAEDEFYNIIGREIVVRGNVIEDRFLGLILRASSWEDVDYRREIERIKEELEKLGVM
chain 2: MVIEMKKRMPATRLYIKDILEGYFVKSEGDFEPNYLITKYARKVYRAKIVGTVVREPLIAEDETYGKFQVDDGTGVIWVLGFRDDTKFAKLVRKGDLVQVIGKIAEWRDDKQILVEGVSKVHPNMWILHRYETLKEKIEHIKKAKIALEIYNQYGITAKSKVIAKNKGIEEELLEVIDELYGIMMEERSIEEPMEELLEEEIPEEKEENELLEKAKEDILNILRQKRTAISRKYILKKLGDKYDEETIDDAITELLAQGEIYEPETGYYKLL
chain 3: MEVQVRRRKPAVERKISEIREEDTRVSLIGRVIKVDKMDYMFWLDDGTGVAIIESESDLPKVGQVVRVIGRIIRNEEGIHIYAEVIQDFSDADLEALEEIRELERKLLPRLEGEIVW

How the values were obtained:
Assay in all cases: SPR; RPA bound to 32mer ssDNA
[1] = molecular target: B2
[2] = molecular target: B2
[3] = molecular target: T1, DNA Polymerase D (Q9V2F3, Q9V2F4), HIS-tagged complex (Pyrococcus abyssi, UniProt Q9V2F3 1-619; Q9V2F4 1-1455)
[4] = molecular target: T1, DNA Polymerase D (Q9V2F3, Q9V2F4), …; remark: listed apart in the source

Kd [1] | koff [2] | Kd [3] | koff [4] | Binder
52 nM | 0.000454 s⁻¹ | – | – | B1
– | – | 51 nM | 0.000202 s⁻¹ | B2
